Test results from patent US20250019680.

Key:
[1] = tested on: dRBD #3L (LwaCas13a with hnRNP A1 RRM2 98-196 inserted between N415 and N416, catalytically inactive HEPN2) R1046A/H1051A (LwaCas13a numbering) (Leptotrichia wadei / Homo sapiens); test: EMSA
[2] = tested on: dRBD #4L (LwaCas13a with hnRNP C RRM 2-106 inserted between N415 and N416, catalytically inactive HEPN2) R1046A/H1051A (LwaCas13a numbering) (Leptotrichia wadei / Homo sapiens); test: EMSA
[3] = tested on: T1, RBD #6L LwaCas13a (ADAR1 126-202 in Loop 1) (Leptotrichia wadei / Homo sapiens); test: cleavage_in_vitro; settings: collateral cleavage of RNaseAlert
T1 sequence: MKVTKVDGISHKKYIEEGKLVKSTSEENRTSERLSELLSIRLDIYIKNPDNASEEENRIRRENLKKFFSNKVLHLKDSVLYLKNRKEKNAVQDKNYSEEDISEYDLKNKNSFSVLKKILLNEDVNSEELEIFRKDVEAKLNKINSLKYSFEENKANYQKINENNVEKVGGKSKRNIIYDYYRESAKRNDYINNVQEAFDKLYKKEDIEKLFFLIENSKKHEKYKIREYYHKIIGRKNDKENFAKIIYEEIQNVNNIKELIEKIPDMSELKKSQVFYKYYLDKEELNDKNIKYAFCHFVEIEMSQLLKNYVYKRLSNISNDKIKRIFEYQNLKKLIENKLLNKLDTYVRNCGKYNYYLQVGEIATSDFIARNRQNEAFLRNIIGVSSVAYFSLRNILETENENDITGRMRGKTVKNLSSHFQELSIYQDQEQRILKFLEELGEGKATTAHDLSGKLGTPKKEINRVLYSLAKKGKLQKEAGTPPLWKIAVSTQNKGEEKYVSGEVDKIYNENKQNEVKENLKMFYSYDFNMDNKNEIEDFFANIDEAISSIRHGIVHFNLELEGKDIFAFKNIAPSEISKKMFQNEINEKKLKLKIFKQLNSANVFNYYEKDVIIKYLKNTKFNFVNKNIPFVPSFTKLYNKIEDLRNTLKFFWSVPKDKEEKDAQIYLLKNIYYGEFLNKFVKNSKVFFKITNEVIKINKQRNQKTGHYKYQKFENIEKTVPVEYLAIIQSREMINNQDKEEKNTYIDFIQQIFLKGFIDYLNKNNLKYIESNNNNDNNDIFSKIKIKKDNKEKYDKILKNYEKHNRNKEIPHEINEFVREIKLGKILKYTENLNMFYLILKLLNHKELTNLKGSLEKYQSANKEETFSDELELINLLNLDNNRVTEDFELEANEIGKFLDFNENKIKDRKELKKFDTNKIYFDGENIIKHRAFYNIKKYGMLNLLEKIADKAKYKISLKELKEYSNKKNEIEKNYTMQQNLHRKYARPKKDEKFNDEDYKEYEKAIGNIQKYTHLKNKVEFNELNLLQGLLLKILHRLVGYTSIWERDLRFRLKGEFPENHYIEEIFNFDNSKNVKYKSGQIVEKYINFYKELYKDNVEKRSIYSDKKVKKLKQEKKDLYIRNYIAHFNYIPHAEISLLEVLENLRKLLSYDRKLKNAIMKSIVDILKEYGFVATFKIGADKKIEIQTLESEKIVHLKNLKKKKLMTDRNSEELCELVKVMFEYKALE

[4] = tested on: RBD #2L LwaCas13a (hnRNP A1 1-104 in Loop 1) (Leptotrichia wadei / Homo sapiens); test: cleavage_in_vitro; settings: collateral cleavage of RNaseAlert
[5] = tested on: RBD #4L LwaCas13a (Leptotrichia wadei / Homo sapiens); test: cleavage_in_vitro; settings: collateral cleavage of RNaseAlert
[6] = tested on: RBD #3L LwaCas13a (Leptotrichia wadei / Homo sapiens); test: cleavage_in_vitro; settings: collateral cleavage of RNaseAlert
[7] = crRNA complex, 50 mM Tris pH 8.0, 60 mM NaCl, 5 mM MgCl2, 37 C
[8] = crRNA complex, 5 mM MgCl2, 37 C
[9] = collateral reporter binding by cr1/T1-bound complex, pH 7.5, 5 mM MgCl2, 0.01% Triton X-100

In the case of “GACUACCCCAAAAACGAAGGGGACUAAAACAAUCUGAGGGUCCACCAAACGUAAUGCG / ACCCCGCAUUACGUUUGGUGGACCCUCAGAUUCAAC [cr1_N crRNA ; T26_N_2 target (36 nt)]”, the Kd [1, 7] is reported as 23 nM and the Kd [2, 7] is reported as 18 nM.

With “GACUACCCCAAAAACGAAGGGGACUAAAACAAUCUGAGGGUCCACCAAACGUAAUGCG / GUCUGAUAAUGGACCCCAAAAUCAGCGAAAUGCACCCCGCAUUACGUUUGGUGGACCCUCAGAUUCAACUGGCAGUAACCAGAAUGGAGAACGCAGUGGGGCGCG [cr1_N crRNA ; T1_N target (105 nt)]” the Kd [1, 8] was 12 nM and the Kd [2, 8] was 11 nM.

“GACUACCCCAAAAACGAAGGGGACUAAAACUCACUCAAUACUUGAGCACACUCAUUAG / GUGAUAGAGCCAUGCCUAACAUGCUUAGAAUUAUGGCCUCACUUGUUCUUGCUCGCAAACAUACAACGUGUUGUAGCUUGUCACACCGUUUCUAUAGAUUAGCUAAUGAGUGUGCUCAAGUAUUGAGUGAAAUGGUCAUGUGUGGCGGUUCACUAUAUGUUAAACCAGGUGGAACCUCAUCAGGAGAUGCCACAACUGCUUAUGCUAAUAGUGUUUUUAACAUUUGU [cr2_RdRp crRNA ; T2_RdRp target]” gave a binding signal (% higher than WT) [3] of 171, a binding signal (% higher than WT) [4] of 164 and a binding signal (% higher than WT) [5] of 241. It also gave a binding signal (% higher than WT) [6] of 264.

With UUUUUUUUUUUUUUUUUUUU [U20 reporter] the Kd [1, 9] was 230 nM and the Kd [2, 9] was 150 nM.
